Source: article PMC3702667

Biological target: RNA polymerase II;RECQL5 1-620 D157A (human;human, UniProt P24928;P30876;P19387;O15514;P19388;P61218;P62487;P52434;P36954;P62875;P52435;P53 …, |D157A)
Assay: cryo-EM

Chain of RNA polymerase II;RECQL5 1-620 D157A (O94762 1-620 D157A, one chain of several): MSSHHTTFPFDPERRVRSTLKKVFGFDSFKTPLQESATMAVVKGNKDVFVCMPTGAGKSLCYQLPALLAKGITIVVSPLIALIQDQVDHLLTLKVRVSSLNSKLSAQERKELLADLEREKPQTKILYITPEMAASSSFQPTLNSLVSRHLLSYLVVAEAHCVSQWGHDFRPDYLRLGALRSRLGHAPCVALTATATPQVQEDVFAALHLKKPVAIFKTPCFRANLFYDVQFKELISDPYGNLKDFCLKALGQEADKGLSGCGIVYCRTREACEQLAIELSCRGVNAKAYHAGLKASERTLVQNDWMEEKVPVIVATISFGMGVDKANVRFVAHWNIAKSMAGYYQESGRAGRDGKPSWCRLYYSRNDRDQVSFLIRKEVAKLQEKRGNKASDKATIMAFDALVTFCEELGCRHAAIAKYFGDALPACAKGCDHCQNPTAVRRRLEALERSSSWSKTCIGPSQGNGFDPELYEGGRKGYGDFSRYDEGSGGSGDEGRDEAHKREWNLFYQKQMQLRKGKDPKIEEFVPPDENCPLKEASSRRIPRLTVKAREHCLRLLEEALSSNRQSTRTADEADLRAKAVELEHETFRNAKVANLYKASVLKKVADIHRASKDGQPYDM

B1: artificial transcription bubble (template DNA, nontemplate DNA, RNA) (mixed)
DNA 1: CTCAAGTACTTACGCCTGGTCATTACTA
DNA 2: TAGTAAACTAGTATTGAAAGTACTTGAGCTTAGACAGCATGTC
RNA: UAUAUGCAUAAAGACCAGGC
binding result: binds
